Measurements as given in patent US20170022291A1 (Adimab, published 2017).
Read-outs that look alike come from different tables or passages of the source.

Tests used:
[1] = biological target: T1, Human Epidermal Growth Factor Receptor 3 (HER3), soluble antigen (human, UniProt P21860 20-643, limits assumed); experiment: affinity of the HER3 binding region in the IgG-Fab; method not named on the sheet or in the legend
T1 construct: also called b-HER3; b-HER3-HIS

EGFR [2] = biological target: T2, EGFR (UniProt P00533 25-645, limits assumed); experiment: affinity of the EGFR binding region in the IgG-Fab; method not named on the sheet or in the legend
T2 construct: also called Antigen 1

EGFR [3] = biological target: T2, EGFR; experiment: as above; remark: listed apart in the source
[4] = biological target: T3, Human Epidermal Growth Factor Receptor 2 (HER2), soluble antigen (human, UniProt P04626 23-652, limits assumed); experiment: affinity of the HER2 binding region in the IgG-Fab; method not named on the sheet or in the legend
T3 construct: also called b-HER2; b-HER2-HIS

B1: N-terminal EGFR::C-terminal HER3 multispecific antibody analog (Analog 3) (bispecific antibody, human IgG1, kappa)
heavy: not shown
light: DIQLTQSPSSVSASVGDRVTITCRASQDISSWLAWYQQKPGKAPKLLIYAASSLQSGVPSRFSGSGSGTDFTLTISSLQPEDFATYYCQQEHDFPWTFGGGTKVEIKRTVAAPSVFIFPPSDEQLKSGTASVVCLLNNFYPREAKVQWKVDNALQSGNSQESVTEQDSKDSTYSLSSTLTLSKADYEKHKVYACEVTHQGLSSPVTKSFNRGEC
notes: IgG-Fab 2+2 format: EGFR VH-CH1-hinge-CH2-CH3-(G4S)3-HER3 VH-CH1, two copies, with four copies of the common light chain; also called N-term-EGFR::C-term-HER3; EGFR-HER3 IgG-Fab
Q: What does the source list for B1?
A: Kd [1]: 49 pM; Kd (EGFR [2]): 290 pM

B2: N-terminal HER3::C-terminal EGFR multispecific antibody analog (Analog 4) (bispecific antibody, human IgG1, kappa)
heavy: not shown
light: DIQLTQSPSSVSASVGDRVTITCRASQDISSWLAWYQQKPGKAPKLLIYAASSLQSGVPSRFSGSGSGTDFTLTISSLQPEDFATYYCQQEHDFPWTFGGGTKVEIKRTVAAPSVFIFPPSDEQLKSGTASVVCLLNNFYPREAKVQWKVDNALQSGNSQESVTEQDSKDSTYSLSSTLTLSKADYEKHKVYACEVTHQGLSSPVTKSFNRGEC
notes: IgG-Fab 2+2 format: HER3 VH-CH1-hinge-CH2-CH3-(G4S)3-EGFR VH-CH1, two copies, with four copies of the common light chain; also called N-term-HER3::C-term-EGFR; HER3-EGFR IgG-Fab
Q: What does the source list for B2?
A: Kd [1]: 49 pM; Kd (EGFR [2]): 870 pM

B3: N-terminal-EGFR::C-terminal HER2 multispecific antibody analog (Analog 1) (bispecific antibody)
heavy: not shown
light: DIQLTQSPSTLSASVGDRVTITCRASQAISSWLAWYQQKPGKAPKLLIYDASSLESGVPSRFSGSGSGTEFTLTISSLQPDDFATYYCHQYQSYSWTFGGGTKVEIKRTVAAPSVFIFPPSDEQLKSGTASVVCLLNNFYPREAKVQWKVDNALQSGNSQESVTEQDSKDSTYSLSSTLTLSKADYEKHKVYACEVTHQGLSSPVTKSFNRGEC
notes: IgG-Fab 2+2 format: EGFR VH-CH1-hinge-CH2-CH3-(G4S)3-HER2 VH-CH1, two copies, with four copies of the common light chain; also called N-term-EGF::C-term-HER2; EGFR-HER2 IgG-Fab
Q: What does the source list for B3?
A: Kd (EGFR [3]): 170 pM; Kd [4]: 8200 pM

B4: N-terminal HER2::C-terminal EGFR multispecific antibody analog (Analog 2) (bispecific antibody, human IgG1, kappa)
heavy: not shown
light: DIQLTQSPSTLSASVGDRVTITCRASQAISSWLAWYQQKPGKAPKLLIYDASSLESGVPSRFSGSGSGTEFTLTISSLQPDDFATYYCHQYQSYSWTFGGGTKVEIKRTVAAPSVFIFPPSDEQLKSGTASVVCLLNNFYPREAKVQWKVDNALQSGNSQESVTEQDSKDSTYSLSSTLTLSKADYEKHKVYACEVTHQGLSSPVTKSFNRGEC
notes: IgG-Fab 2+2 format: HER2 VH-CH1-hinge-CH2-CH3-(G4S)3-EGFR VH-CH1, two copies, with four copies of the common light chain; also called N-term-HER2::C-term-EGFR; HER2-EGFR IgG-Fab
Q: With B4 as the binder, how does the Kd (EGFR [3]) read?
A: 470 pM

Q: What about the Kd [4] of the same binder?
A: 100 pM
